The values below are quoted from earlier work in article PMC7156326.

This series deals with GATAD2A coiled-coil (Homo sapiens) (UniProt Q86YP4).
Sequence of UniProt Q86YP4 (Q86YP4 137-178): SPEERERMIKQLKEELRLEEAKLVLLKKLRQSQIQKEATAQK

With MBD2 coiled-coil (from UniProt Q9UBB5), the Kd (in general, the equilibrium constant for the complex coming apart) is 0.05 µM.
